# Measured values: patent US20160320413A1 (D GEN, published 2016)
# B1: ICSM18 anti-PrP antibody (D-Gen Ltd, product code 0130-01810), biotinylated (antibody, V domains shown)
# VH: EVQLQQSGPELVKPGSSVKISCKASRNTFTDYNLDWVKQSHGKTLEWIGNVYPNNGVTGYNQKFRGKATLTVDKSSSTAYMELHSLTSEDSAVYYCALYYYDVSYWGQGTLVTVSA
# VL: QIVLTQSPAIMSASPGEKVTMTCSASSSVSYMHWYQQKSGTSPKRWIYDTSKLASGVPARFSGSGSGTSYSLTISSMEAEDAATYFCHQWRSNPYTFGGGTKLEIKR
# Target: abnormal human PrP (disease associated PrP, including PrPSc) from vCJD brain homogenate, blood or ur (human, UniProt P04156 23-230)
binder,measurement,value
B1,ratio relative to cut off,1.17
